The source of these data is patent US20080015165A1, “NOVEL POLYPEPTIDE” (KYOWA HAKKO KOGYO CO., LTD., priority 1998, published 2008).

A short description of series [1]: In vitro α1,3-fucosyltransferase activity, COS-1 cell lysate, pyridylaminated substrate, HPLC. The series is classed as biochemical. The conditions noted are these: activity of human Fuc-TVI for α2,3-sialylLNnT taken as 100; 25 μM substrate, 2 hours at 37° C.; normalized to transcript amount.
Assay in series [2]: as above
The format is biochemical. Conditions: activity of human Fuc-TVI for α2,3-sialylLNnT taken as 100; 25 μM substrate, 2 hours at 37° C.; normalized to transcript amount. How it is done:
Each α1,3-fucosyltransferase expression plasmid (15 μg) was introduced into 1×10^7 COS-1 cells.
This introduction was performed by electroporation method using a gene pulser (manufactured by Bio-Rad) according to the Bio-Rad's instructional manual attached thereto. At this time, 1 μg of a luciferase expression vector, which was constructed by inserting β-actin promoter into a Hind III site of a vector pSVOA/L [Experimental Medicine, 7, 96, (1989)] was co-introduced as an index of gene transfer efficiency.
After the gene introduction, COS-1 cells were dispensed into three dishes for cell culture with a diameter of 15 cm and then cultured for 48 hours.
The cells in the remaining two dishes were collected, suspended in a solution (20 mM HEPES (pH 7.4), 2% TrironX-100), then ultrasonicated for a short time period, thereby preparing cell lysate. The protein concentration of the cell lysate was measured using a micro BCA protein assay reagent kit (manufactured by PIERCE).
The enzymatic activities of luciferase and α1,3-fucosyltransferase were measured using the cell lysate. […]
Each of the substrates was allowed to react in assay solution with or without GDP-Fuc (sugar donator), then analyzed with HPLC. […]
The products were detected using a fluorescent spectrum photometer FP-920 (JASCO Corporation) at excitation wavelength of 320 nm and emission wavelength of 400 nm. […]
This is another data set of the same source.

Series [3] is described as follows: Enzyme activity for monofucosylpoly-N-acetyllactosamine sugar chain P2, Namalwa cell extract, HPLC. The series is classed as biochemical. Conditions: relative activity with the activity for P2 assumed to be 1. The method, then: (§1) Samples were allowed to react in 20 μl of an assay solution [50 mM cacodylate (pH 6.8), 5 mM ATP, 10 mM L-fucose, 75 μM […] (manufactured by SIGMA), 25 mM MnCl2, 15 μM fluorescently labeled sugar chain substrate, 6 μl of the cell lysate above] at 37° C. for 2 hours, followed by treatment at 100° C. for 3 minutes to stop the reaction. Next 200 μl of water was added to the samples, and the supernatant was obtained by centrifugation at 10,000×g for 5 minutes. Using an aliquot of the supernatant (10 μl), products were analyzed by HPLC under the following conditions.
(§2) HPLC: • Column—TSK-gel ODS-80TsQA column (4.6×250 mm; TOSOH CORPORATION) • Eluate—0.02 M ammonium acetate (pH 4.0) containing 7% methanol • Elution temperature—50° C. • Flow rate—1.0 ml/min. • Detection—Fluorescence spectrum photometer FB-920 (manufactured by JASCO Corporation) (excitation wavelength: 330 nm, radiation wavelength: 420 nm)

Series [4] in a line: Enzyme activity for a poly-N-acetyllactosamine sugar chain, Namalwa cell extract, HPLC. The series is classed as biochemical.
From the text: Using a poly-N-acetyllactosamine sugar chain, it was examined that to which GlcNAc in the sugar chains, human Fuc-TIX and 5 types of human α1,3-fucosyltransferase (Fuc-TIII, Fuc-TIV, Fuc-TV, Fuc-TVI, and Fuc-TVII) that had been cloned so far transferred fucose.
Control plasmid (pAMo) and the human Fuc-TIX expression plasmid pAMo-FT9 were introduced into Namalwa cells according to the method shown in Example 1 (3), thereby obtaining stable transformants.
Namalwa cells expressing each of the other 5 types of human α1,3-fucosyltransferases (Fuc-TIII, Fuc-TIV, Fuc-TV, Fuc-TVI, and Fuc-TVII) were obtained according to the previous report (Glycoconjugate J., 13, 802-812, Biochem. Biophys. Res. Commun., 237, 131-137, 1997).
The resultant transformants (about 1×10^7) were collected in microtubes (1.5 ml, manufactured by Eppendolf), followed by centrifugation at 550×g for 7 minutes to collect the cells.
The collected cells were washed with 0.9 ml of PBS. The washed cells were suspended in 100 μl of a solution which consisted of 20 mM HEPES (pH 7.2) and 1% TrironX-100, then allowed to stand at 4° C. for 10 minutes. Subsequently the cells were disrupted using a ultrasonicator (Bioruptor; manufactured by COSMO BIO CO., LTD.)
After disruption of the cells, each supernatant was obtained by centrifugation at 550×g for 7 minutes and used as an enzyme sample. A poly-N-acetyllactosamine sugar chain (Galβ1-4GlcNAcβ1-3Galβ1-4GlcNAcβ1-3Galβ1-4GlcNAc) consisting of 6 sugars was fluorescently labeled with 2-aminobenzamide to make a sugar chain (Galβ1-4GlcNAcβ1-3Galβ1-4GlcNAcβ1-3Galβ1-4GlcNAc-2AB: abbreviated as S in FIGS. 13 and 15, and table 3), which was used as a substrate
Florescent labeling was performed using a Signal™ 2-AB glycan labeling kit (manufactured by Oxford GlycoScience). A poly-N-acetyllactosamine sugar chain (Galβ1-4GlcNAcβ1-3Galβ1-4GlcNAcβ1-3Galβ1-4GlcNAc) was prepared according to WO98/03524.
as §1, §2

The subject of series [5] is Namalwa cells. Put plainly: Indirect fluorescent antibody staining of Namalwa cells expressing human Fuc-TIV or Fuc-TIX (VIM-2 and Le^x sugar chains). The series is classed as cell-based. The conditions noted are these: compared to Namalwa cells transfected with pAMo. How it is done:
Using an anti-VIM-2 sugar chain antibody (anti-CDw65 antibody, manufactured by Serotec) and anti-Le^x sugar chain antibodies [73-30 (manufactured by […] CORPORATION) and anti-CD15 antibody (C3D-1, manufactured by Dako)], indirect fluorescent antibody staining was performed for Namalwa cells expressing human Fuc-TIV or human Fuc-TIX, and for Namalwa cells transfected with the control vector pAMo, which were constructed in Example 9. The VIM-2 sugar chain is a sugar chain having the structure consisting of Galβ1-4GlcNAcβ1-3Galβ1-4(Fucα1-3)GlcNAc on non-reduced terminal of a sugar chain.
Indirect fluorescent antibody staining was performed according to the method described in Example 1 (3). Anti-VIM-2 sugar chain antibodies, 73-30 and C3D-1 were used after dilution at 1:50, 1:100, and 1:50.

Where [6] appears, read: relative activity with the activity for P2 assumed to be 1.
The mark [7] stands for this setting: substrate S, relative value, total of products P1, P2 and P3 by each enzyme = 100%.

B1: Mouse Fuc-TIX: polypeptide of 359 amino acids (SEQ ID NO:1) encoded by mouse Fuc-TIX cDNA; novel α1,3-fucosyltransferase (protein)
chain: MTSTSKGILRPFLIVCIILGCFMACLLIYIKPTNSWVFSPMESASSVLKMKNFFSTKTDYFNETTILVWVWPFGQTFDLTSCQAMFNIQGCHLTTDRSLYNKSHAVLIHHRDISWDLTNLPQQARPPFQKWIWMNLESPTHTPQKSGIEHLFNLTLTYRRDSDIQVPYGFLTVSTNPFVFEVPSKEKLVCWVVSNWNPEHARVKYYNELSKSIEIHTYGQAFGEYVNDKNLIPTISTCKFYLSFENSIHKDYITEKLYNAFLAGSVPVVLGPSRENYENYIPADSFIHVEDFNSPSELAKYLKEVDKNNKLYLSYFNWRKDFTVNLPRFWESHACLACDHVKRHQEYKSVGNLEKWFWN
modifications: Mouse
notes: novel α1,3-fucosyltransferase
Consider B1, for which the “Relative activity of α1,3-fucosyltransferases for substrate LNT” value in series [1] amounted to 0. The “Relative activity of α1,3-fucosyltransferases for substrate α2,3-sialyl LNnT” value in series [2] came out at 0.

B2: Fuc-TIV: known human α1,3-fucosyltransferase, previously cloned, expressed in Namalwa cells (protein, UniProt P22083 1-530, looked up)
Alpha-(1,3)-fucosyltransferase …: MRRLWGAARKPSGAGWEKEWAEAPQEAPGAWSGRLGPGRSGRKGRAVPGWASWPAHLALAARPARHLGGAGQGPRPLHSGTAPFHSRASGERQRRLEPQLQHESRCRSSTPADAWRAEAALPVRAMGAPWGSPTAAAGGRRGWRRGRGLPWTVCVLAAAGLTCTALITYACWGQLPPLPWASPTPSRPVGVLLWWEPFGGRDSAPRPPPDCRLRFNISGCRLLTDRASYGEAQAVLFHHRDLVKGPPDWPPPWGIQAHTAEEVDLRVLDYEEAAAAAEALATSSPRPPGQRWVWMNFESPSHSPGLRSLASNLFNWTLSYRADSDVFVPYGYLYPRSHPGDPPSGLAPPLSRKQGLVAWVVSHWDERQARVRYYHQLSQHVTVDVFGRGGPGQPVPEIGLLHTVARYKFYLAFENSQHLDYITEKLWRNALLAGAVPVVLGPDRANYERFVPRGAFIHVDDFPSASSLASYLLFLDRNPAVYRRYFHWRRSYAVHITSFWDEPWCRVCQAVQRAGDRPKSIRNLASWFER
Regarding B2, the “Enzymatic activity, substrate P2, product P3” value in series [3] is reported as 1.0. In series [4] (setting [6]), the “Enzymatic activity, substrate S, product P1” value worked out at 1.6; the “Enzymatic activity, substrate S, product P2” value was 4.1; the “Enzymatic activity, substrate S, product P3” value is given as 0.5. In addition, in series [4] (setting [7]), the “Production (%) P1” value worked out at 22.2%, the “Production (%) P2” value was 72.0% and the “Production (%) P3” value is given as 5.8%. Further, in series [5], the “reactivity against the anti-VIM-2 sugar chain antibody” value was “significant increase”.
